Key:
[1] = Tet plasma concentration in the mIL-12 time course study; conditions: female, C57Bl/6, mouse, in vivo
[2] = system: IL-12 and IFNγ plasma levels, body weight, liver enzymes; test: Dose-finding study to determine PK and safety of Tet-switch-controlled IL-12 (FIG. 18); conditions: 30 mg/kg i.p. twice daily for 5 consecutive days
[3] = four 100 mg/kg Tet doses in 8 h intervals
[4] = system: eGFP expression in HEK293 cells; test: Tet-dependent eGFP expression from K19 constructs in transfected HEK293 cells; conditions: HEK293, independent of Tet
[5] = system: eGFP and sNLuc expression in HEK293 cells; test: K19 riboswitch kinetics in HEK293 cells (qPCR, fluorescence, Western blot, sNLuc)

With CN(C)[C@@H]1C(O)=C(C(N)=O)C(=O)[C@@]2(O)C(O)=C3C(=O)c4c(O)cccc4[C@@](C)(O)[C@H]3C[C@@H]12 [Tet, tetracycline] the concentration at 8 h ([1]; 10 mg/kg) was 100 nM, the concentration at 8 h ([1]; 30 mg/kg) was 750 nM and the “tolerability of Tet (in words)” value [2] was “well tolerated”. The “other signs of toxicity” value [3] was “no other signs of toxicity were observed”.

B1: catalytically inactive K19 switch: control plasmid harboring a catalytically inactive, non-cleaving K19 switch (SEQ ID No. 45) (nucleic acid)
chain: GGCGCGTCCTGGATTCGTGGTAAAACATACCAGATTTCGATCTGGAGAGGTGAAGAATACGACCACCTACTACATCCAGCTGATGAGTCCCAAATAGGACGAGACGCGCT
modifications: the letters are possibly those of the target site
In the case of B1, the “steady eGFP expression level, of constitutive signal” value [4] is reported as “about 90%”.

B2: K19: Tet-responsive aptazyme: tetracycline aptamer plus hammerhead ribozyme N79 (Beilstein et al. 2015), SEQ ID NO:9/10; tested in active-switch plasmids (nucleic acid)
chain 1: GGCGCGTCCTGGATTCGTGGTAAAACATACCAGATTTCGATCTGGAGAGGTGAAGAATACGACCACCTACTACATCCAGCTGATGAGTCCCAAATAGGACGAAACGCGCT
chain 2: GGCGCGUCCUGGAUUCGUGGUAAAACAUACCAGAUUUCGAUCUGGAGAGGUGAAGAAUACGACCACCUACUACAUCCAGCUGAUGAGUCCCAAAUAGGACGAAACGCGCU
modifications: chemistry not fully specified; one strand in two spellings; the letters are possibly those of the target site
In the case of B2, the “onset of eGFP expression induction on the mRNA level after Tet addition” value ([5]; HEK293, 50 μM Tet) is reported as 15 min, the “onset of increase in direct eGFP fluorescence signal after Tet addition” value ([5]; HEK293, 50 μM Tet) is reported as “two” and the “time to full induction on the mRNA level” value ([5]; HEK293, 50 μM Tet) is reported as “four”. For the same molecule, the “reversibility upon Tet retraction (in words)” value ([5]; HEK293 previously grown in presence of Tet) was “relative decrease in sNLuc expression was observed”, the “Tet-induced sNLuc increase detected after addition” value ([5]; HEK293 supernatant) was 2 h and the “time to saturation of sNLuc increase” value ([5]; HEK293 supernatant) was 4 to 8 h.

Reference: patent US20240076689A1, “VIRAL VECTORS AND NUCLEIC ACIDS FOR REGULATED GENE THERAPY” (Boehringer Ingelheim International GmbH, priority 2020, published 2024)
